{"source": "patent US7125704B2", "about": "“Gluconate dehydratase” (priority 2003, dated 2006)", "experiment": "Thermostability and storage stability of purified gluconate dehydratase (remaining activity after standing)", "assay_type": "physicochemical, Achromobacter xylosoxidans strain ATCC 9220", "protocol": "The gluconate dehydratase activity in the present invention produces 2-keto-3-deoxy-D-gluconic acid, using D-gluconic acid as the substrate. The activity can be determined as follows: A reaction mixture in an amount of 1 mL containing […] of a Tris buffer (pH 8.5), 40 μmol of sodium D-gluconate, 1 μmol of magnesium chloride, and the gluconate dehydratase is allowed to react at 37° C. for 10 minutes, and 200 μL of 1 M hydrochloric acid solution is added to the reaction mixture to stop the reaction; and then, the amount of the resulting 2-keto-3-deoxy-D-gluconic acid is determined by high-performance liquid chromatography (column: Shodex Asahipak NH2P-50 4E, produced by Showa Denko, column temperature: 40° C., mobile phase: 50 mM sodium dihydrogen phosphate solution, flow rate: 1 mL/min, detection at 210 nm). An amount of enzyme for catalyzing the production of 1 μmol of 2-keto-3-deoxy-D-gluconic acid for one minute is defined as 1 U. The amount of protein may be determined by a dye-binding method using a Bio-Rad protein assay kit.\nSamples of the purified gluconate dehydratase solution prepared in Example 3, which was dissolved in the 30 mM Tris buffer (pH 8.5) containing 1 mM sodium D-gluconate and 1 mM magnesium chloride, […] Another sample was allowed to stand at 4° C. for 7 days and 30 days. […]"}
{"molecule": "Gluconate Dehydratase: heat-resistant gluconate dehydratase purified from Achromobacter xylosoxidans strain ATCC 9220, amino acid sequence SEQ ID NO:2 (protein, Achromobacter xylosoxidans) MTDTPRKLRSQKWFDDPAHADMTAIYVERYLNYGLTRQELQSGRPIIGIAQTGSDLAPCNRHHLALAERIKAGIRDAGGIPMEFPVHPLAEQGRRPTAALDRNLAYLGLVEILHGYPLDGVVLTTGCDKTTPACLMAAATVDIPAIVLSGGPMLDGWHDGQRVGSGTVIWHARNLMAAGKLDYEGFMTLATASSPSIGHCNTMGTALSMNSLAEALGMSLPTCASIPAPYRERGQMAYATGLRICDMVREDLRPSRILTREAFENAIVVASALGASSNCPPHLIAMARHAGIDLSLDDWQRLGEDVPLLVNCVPAGEHLGEGFHRAGGVPAVMHELLAAGRLHADCATVSGKTIGEIAAGAKTHDADVIRGCDAPLKHRAGFIVLSGNFFDSAVIKMSVVGEAFRRAYLSAPGDENAFEARAIVFEGPEDYHARIEDPALNIDEHCILVIRGAGTVGYPGSAEVVNMAPPSHLIKRGIDSLPCLGDGRQSGTSASPSILNMSPEAAVGGGLALLRTGDRIRVDLNQRSVIALVDEAELARRRQDPPYQPPPAQTPWQELYRQLVGQLSTGGCLEPSTLYLKVVETRGDPRHSH", "values": [{"measurement": "Remaining activity (%)", "setting": "buffer, 168 h", "result": 100, "unit": "%"}, {"measurement": "Storage stability of the activity", "setting": "storage at 0° C. in Tris buffer (pH 8.0 to 8.8), 1 mM sodium D-gluconate, 1 mM magnesium chloride (same conditions as the M250 report)", "result": "maintain the activity stably for one month"}]}
